Data published in US20240156980A1 (Molecular Partners, published 2024).
Values belong to the binder of their own block, whether it stands above or below them.

Tests used:
[1] = molecular target: T1, human EGFR on tumor cells (human, UniProt P00533 25-1210); assay: cell-based or functional assay
[2] = molecular target: T1, human EGFR on tumor cells; assay: cell-based or functional assay; remark: listed apart in the source
[3] = molecular target: T2, CD3-specific binding domain C7v14; assay: SPR (affinity cited in Example 9; CD3-binding domain taken as C7v14); high affinity Binder #1
T2 construct: Used as analyte in SPR; also called hC22_88B02v14
T2 chain: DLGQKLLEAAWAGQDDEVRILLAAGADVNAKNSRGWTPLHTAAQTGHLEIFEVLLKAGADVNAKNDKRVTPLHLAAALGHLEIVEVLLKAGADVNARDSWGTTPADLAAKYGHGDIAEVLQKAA
From the text: (§1) An important feature of a binding moiety of the invention is its affinity towards a drug molecule. Relevant aspects include the off-rate of the binding moiety from the drug molecule and the resulting blocking half-life. Surface plasmon resonance (SPR) assays were used to determine the binding affinity of ankyrin repeat binding domains to the CD3 binding domain of a TCE drug molecule. AN SPR data was generated using a Bio-Rad ProteOn XPR36 instrument with PBS-T (0.005% Tween 20) as running buffer. A new neutravidin sensor chip (NLC) was air-initialized and conditioned according to Bio-Rad manual.

[4] = molecular target: T2, CD3-specific binding domain C7v14; assay: SPR (ProteOn XPR36), biotinylated Binder captured on NLC neutravidin chip as ligand, CD3-specific binding domain as analyte, PBS-T, 25 C; KD from kon/koff
From the text: as §1

[5] = molecular target: T3, CD3-specific binding domain C7v118; assay: as above
T3 construct: Used as analyte in SPR; also called hC22_88B02v118
T3 chain: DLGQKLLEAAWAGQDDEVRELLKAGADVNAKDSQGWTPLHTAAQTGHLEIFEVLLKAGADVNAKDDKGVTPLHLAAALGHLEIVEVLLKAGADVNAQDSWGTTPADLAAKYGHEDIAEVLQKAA
From the text: as §1

[6] = molecular target: T4, CD3-specific binding domain C7v119; assay: as above
T4 construct: Used as analyte in SPR; also called hC22_88B02v119
T4 chain: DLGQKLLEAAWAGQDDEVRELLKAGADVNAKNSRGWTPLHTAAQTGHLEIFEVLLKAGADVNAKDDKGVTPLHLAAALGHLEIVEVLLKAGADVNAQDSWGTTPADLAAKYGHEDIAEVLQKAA
From the text: as §1

[7] = molecular target: T5, CD3-specific binding domain C7v122; assay: as above
T5 construct: Used as analyte in SPR; also called hC22_88B02v122
T5 chain: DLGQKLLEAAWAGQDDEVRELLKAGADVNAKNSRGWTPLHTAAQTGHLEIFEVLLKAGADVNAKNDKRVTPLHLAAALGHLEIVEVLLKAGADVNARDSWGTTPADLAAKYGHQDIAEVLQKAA
From the text: as §1

[8] = molecular target: T6, CD3-specific binding domain C7v127; assay: as above
T6 construct: Used as analyte in SPR; also called hC22_88B02v127
T6 chain: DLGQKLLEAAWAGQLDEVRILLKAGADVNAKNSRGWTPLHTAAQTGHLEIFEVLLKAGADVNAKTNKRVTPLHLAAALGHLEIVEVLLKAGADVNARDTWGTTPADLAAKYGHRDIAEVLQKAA
From the text: as §1

[9] = molecular target: T2, CD3-specific binding domain C7v14; assay: SPR (affinity cited in Example 9; CD3-binding domain taken as C7v14); lower affinity Binder #3
From the text: as §1

[10] = molecular target: T2, CD3-specific binding domain C7v14; assay: SPR (ProteOn XPR36), biotinylated Binder captured on NLC neutravidin chip as ligand, CD3-specific binding domain as analyte, PBS-T, 25 C; KD by equilibrium fitting
From the text: as §1

[11] = molecular target: T3, CD3-specific binding domain C7v118; assay: as above
From the text: as §1

[12] = molecular target: T4, CD3-specific binding domain C7v119; assay: as above
From the text: as §1

[13] = molecular target: T5, CD3-specific binding domain C7v122; assay: as above
From the text: as §1

[14] = molecular target: T6, CD3-specific binding domain C7v127; assay: as above
From the text: as §1

masking window (EC50 difference between active TCE and CD3-PDD NCL), T-cell activation with A431 cells [1]: ~200 fold | T-cell activation EC50 (CD25 on CD8+ T cells), EGFR+ HCT 116 tumor cells and pan T-cells [2]: 0.0532 nM | T-cell activation EC50 (CD25 on CD8+ T cells), EGFR+++ A431 tumor cells and pan T-cells [2]: 0.679 nM
B1: CD3-PDD NCL EGFR-C7v14-[NCL2]-06E05v05-6His (designed binder)
chain: MGSDLGYKLLRAAFHGQDDEVRILLAAGADVNAKDLIGQTPLHNAAWVGHLEIVEVLLKAGADVNAKDYYGNTPLHLAAHDGHLEIVEVLLKAGADVNAQDTWGETPADLATNAGHEDIAEVLQKAAGSPTPTPTTPTPTPTTPTPTPTGSDLGQKLLEAAWAGQDDEVRILLAAGADVNAKNSRGWTPLHTAAQTGHLEIFEVLLKAGADVNAKNDKRVTPLHLAAALGHLEIVEVLLKAGADVNARDSWGTTPADLAAKYGHGDIAEVLQKAASGPTPTPTTPTPTPTTPTPTPTGSDLGKKLLQAARAGQLDEVRELLKAGADVNAKDAKGLTPLHLAAYHGHLEIVEVLLKAGADVNAKDVYGWTPLHIAAASGHLEIVEVLLKAGADVNAKDALGWTPLHLAASHGHLEIVEVLLKAGADVNAQDKSGKTPADLAARAGHQDIAEVLQKAAGSHHHHHH

Kd [3]: < 1 nM | Kd [4]: 0.33 nM | Kd [5]: 0.44 nM | Kd [6]: 0.36 nM | Kd [7]: 0.21 nM | Kd [8]: 0.02 nM
B2: Binder #1 (designed binder)
chain: MRGSHHHHHHGSDLGKKLLQAARAGQLDEVRELLKAGADVNAKDAKGLTPLHLAAYHGHLEIVEVLLKAGADVNAKDVYGWTPLHIAAASGHLEIVEVLLKAGADVNAKDWLGWTPLHLAASHGHLEIVEVLLKAGADVNAQDKSGKTPADLAARAGHQDIAEVLQKAA
modifications: biotinylated for SPR (site not stated)
notes: also called 06E05

Kd [9]: > 100 nM | Kd [10]: 189 nM | Kd [11]: 683 nM | Kd [12]: 336 nM | Kd [13]: 149 nM | Kd [14]: 53.4 nM
B3: Binder #3 (designed binder)
chain: MRGSHHHHHHGSDLGKKLLQAARAGQLDEVRELLKAGADVNAKDAKGLTPLHLAAYHGHLEIVEVLLKAGADVNAKDVYGWTPLHIAAASGHLEIVEVLLKAGADVNAKDALGWTPLHLAASHGHLEIVEVLLKAGADVNAQDKSGKTPADLAARAGHQDIAEVLQKAA
modifications: biotinylated for SPR (site not stated)
notes: N-terminal His-tag; also called 06E05v05
